# Data as given in article doi:10.1101/2022.08.10.503460 (bioRxiv, 2022).
# Biological target: Mouse Pcdh15 EC1-2 (mouse, UniProt Q99PJ1 27-259)
# Test: AFM force-clamp spectroscopy
binder,measurement,value
Mouse Cdh23 EC1-2 (domain or fragment) QVNRLPFFTNHFFDTYLLISEDTPVGSSVTQLLARDMDNDPLVFGVSGEEASRFFAVEPDTGVVWLRQPLDRETKSEFTVEFSVSDHQGVITRKVNIQVGDVNDNAPTFHNQPYSVRIPENTPVGTPIFIVNATDPDLGAGGSVLYSFQPPSPFFAIDSARGIVTVIQELDYEVTQAYQLTVNATDQDKTRPLSTLANLAIIITD,koff,0.2 s⁻¹
